Molecular target: T1, mouse plasma ApoE (mouse (endogenous in BALB/c plasma), UniProt P08226 19-311)
T1 construct: apolipoprotein E, mouse, band of 36 kDa identified by nano-LC-MS/MS; also called apolipoprotein E; source: endogenous, BALB/c mouse plasma (in vitro) or blood of injected BALB/c mice (in vivo)
T1 sequence (looked up): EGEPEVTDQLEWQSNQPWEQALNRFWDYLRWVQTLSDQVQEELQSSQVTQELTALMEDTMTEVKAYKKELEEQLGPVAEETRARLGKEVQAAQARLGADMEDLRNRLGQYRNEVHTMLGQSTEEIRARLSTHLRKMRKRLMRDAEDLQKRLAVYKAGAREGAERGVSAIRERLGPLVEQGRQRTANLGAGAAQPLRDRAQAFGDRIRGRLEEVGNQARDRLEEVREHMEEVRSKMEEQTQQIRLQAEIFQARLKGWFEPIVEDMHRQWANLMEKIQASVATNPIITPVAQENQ
Test: radioligand binding; SP-sLip (100 μL, 10 mg/mL) with mouse plasma (100 μL) at 37 °C for 1 h, then I-125 rhLRP1 (6 μCi, 0.5 μg) for 1 h at 37 °C; pellet at 19k RCF 30 min, three washes with cold PBS, gamma counter; plain sLip as control
Details: one partner purified

fold of rhLRP1 absorbed on SP-sLip over plain sLip, after preincubation with mouse plasma: 8.4 fold
B1: I-125 radiolabeled recombinant human LRP1 Cluster II Fc Chimera, Human IgG1 (Fc fusion, UniProt Q07954 852-1182, looked up)
chain: PQCQPGEFACANSRCIQERWKCDGDNDCLDNSDEAPALCHQHTCPSDRFKCENNRCIPNRWLCDGDNDCGNSEDESNATCSARTCPPNQFSCASGRCIPISWTCDLDDDCGDRSDESASCAYPTCFPLTQFTCNNGRCININWRCDNDNDCGDNSDEAGCSHSCSSTQFKCNSGRCIPEHWTCDGDNDCGDYSDETHANCTNQATRPPGGCHTDEFQCRLDGLCIPLRWRCDGDTDCMDSSDEKSCEGVTHVCDPSVKFGCKDSARCISKAWVCDGDNDCEDNSDEENCESLACRPPSHPCANNTSVCLPPDKLCDGNDDCGDGSDEGELC
modifications: I-125 radiolabel (residues not stated)
notes: Same bought protein as m6, radiolabeled; the labelling method is not described; also called I^125 radiolabeled rhLRP1; radiolabeled rhLRP1; source: bought: R&D system, then I-125 radiolabeled
